First the molecules themselves.
B1: STK38L (parent)
chain: RQLAYSTVGTPDYIAPEVFMQTGY

These results are taken from the supplement of paper PMC10567573.
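Further: lentivirally expressed fusions sorted by FACS into six bins by GFP to DsRed ratio, PSI derived from sequencing read proportions per bin multiplied by bin number.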

Variants of B1 are the subject of the data set. The experiment in a line: protein stability index of a GFP-peptide fusion (GPS, HEK-293T) (PSI 1-6); higher = more stable. The note with it: c terminus: a fixed tail appended.
Take RQLAYSWVGTPDYIAPEVFMQTGY: the protein stability index is 1.79.

With RQLAYSPVGTPDYIAPEVFMQTGY, the protein stability index amounted to 3.26. For RQLAYSGVGTPDYIAPEVFMQTGY the value was 2.62. As for RQLAYSNVGTPDYIAPEVFMQTGY, the protein stability index came to 2.51. In the case of RQLAYSIVGTPDYIAPEVFMQTGY it was 2.04; in that of RQLAYSDVGTPDYIAPEVFMQTGY, 2.26; in that of RQLAYSFVGTPDYIAPEVFMQTGY, 1.62. RQLAYSKVGTPDYIAPEVFMQTGY: the protein stability index came to 2.41. In the case of RQLAYSSVGTPDYIAPEVFMQTGY it was 2.11. In the case of RQLAYSVVGTPDYIAPEVFMQTGY it was 2.04; in that of RQLAYSMVGTPDYIAPEVFMQTGY, 1.84; in that of RQLAYSHVGTPDYIAPEVFMQTGY, 2.44.

Take RQLAYSRVGTPDYIAPEVFMQTGY: the protein stability index was 2.52. As to RQLAYSLVGTPDYIAPEVFMQTGY, the protein stability index came to 2.1. In the case of RQLAYSQVGTPDYIAPEVFMQTGY it was 3.12. Regarding RQLAYSEVGTPDYIAPEVFMQTGY, the protein stability index was 3.02.

Take RQLAYSYVGTPDYIAPEVFMQTGY: the protein stability index is 2.07. RQLAYSCVGTPDYIAPEVFMQTGY: the protein stability index turned out to be 2.07. For RQLAYSAVGTPDYIAPEVFMQTGY the value was 2.76; for QQLAYSTVGTPDYIAPEVFMQTGY, 2.47; for VQLAYSTVGTPDYIAPEVFMQTGY, 2.45. For GQLAYSTVGTPDYIAPEVFMQTGY, the protein stability index worked out at 1.95. In the case of TQLAYSTVGTPDYIAPEVFMQTGY it was 2.56; in that of WQLAYSTVGTPDYIAPEVFMQTGY, 2.84. For DQLAYSTVGTPDYIAPEVFMQTGY the value was 2.71; for EQLAYSTVGTPDYIAPEVFMQTGY, 3.06. In the case of IQLAYSTVGTPDYIAPEVFMQTGY it was 1.15; in that of FQLAYSTVGTPDYIAPEVFMQTGY, 3.13; in that of YQLAYSTVGTPDYIAPEVFMQTGY, 2.51. With AQLAYSTVGTPDYIAPEVFMQTGY, the protein stability index is 2.38. For LQLAYSTVGTPDYIAPEVFMQTGY the value was 1.87; for PQLAYSTVGTPDYIAPEVFMQTGY, 3.41. In the case of SQLAYSTVGTPDYIAPEVFMQTGY it was 2.38; in that of NQLAYSTVGTPDYIAPEVFMQTGY, 2.82; in that of HQLAYSTVGTPDYIAPEVFMQTGY, 2.38. As for CQLAYSTVGTPDYIAPEVFMQTGY, the protein stability index worked out at 2.06. For KQLAYSTVGTPDYIAPEVFMQTGY the value was 2.71; for MQLAYSTVGTPDYIAPEVFMQTGY, 1.79; for RQLAYHTVGTPDYIAPEVFMQTGY, 2.63. In the case of RQLAYITVGTPDYIAPEVFMQTGY it was 1.78.

With RQLAYTTVGTPDYIAPEVFMQTGY, the protein stability index worked out at 2.21. In the case of RQLAYATVGTPDYIAPEVFMQTGY it was 1.95; in that of RQLAYVTVGTPDYIAPEVFMQTGY, 1.45. For RQLAYLTVGTPDYIAPEVFMQTGY the value was 2.08; for RQLAYPTVGTPDYIAPEVFMQTGY, 2.44. For RQLAYFTVGTPDYIAPEVFMQTGY, the protein stability index was determined as 1.65. For RQLAYKTVGTPDYIAPEVFMQTGY the value was 2.43. For the variant RQLAYQTVGTPDYIAPEVFMQTGY, the protein stability index worked out at 2.25. With RQLAYDTVGTPDYIAPEVFMQTGY, the protein stability index was 2.55. In the case of RQLAYRTVGTPDYIAPEVFMQTGY it was 2.79. In the case of RQLAYCTVGTPDYIAPEVFMQTGY, the protein stability index came to 1.84. On to RQLAYGTVGTPDYIAPEVFMQTGY, for which the protein stability index stood at 2.32. Turning to RQLAYWTVGTPDYIAPEVFMQTGY, the protein stability index worked out at 2.5. In the case of RQLAYYTVGTPDYIAPEVFMQTGY it was 1.77; in that of RQLAYETVGTPDYIAPEVFMQTGY, 3.3. In the case of RQLAYNTVGTPDYIAPEVFMQTGY, the protein stability index worked out at 2.46.

As to RQLAYMTVGTPDYIAPEVFMQTGY, the protein stability index was 1.79. With RKLAYSTVGTPDYIAPEVFMQTGY, the protein stability index turned out to be 2.54. In the case of RWLAYSTVGTPDYIAPEVFMQTGY it was 1.27. For RILAYSTVGTPDYIAPEVFMQTGY the value was 1.61; for RCLAYSTVGTPDYIAPEVFMQTGY, 2.42; for RVLAYSTVGTPDYIAPEVFMQTGY, 1.46. In the case of RMLAYSTVGTPDYIAPEVFMQTGY it was 2.03. As for RELAYSTVGTPDYIAPEVFMQTGY, the protein stability index amounted to 2.3. In the case of RSLAYSTVGTPDYIAPEVFMQTGY it was 2.4; in that of RFLAYSTVGTPDYIAPEVFMQTGY, 2.55; in that of RRLAYSTVGTPDYIAPEVFMQTGY, 3.34. In the case of RYLAYSTVGTPDYIAPEVFMQTGY, the protein stability index was found to be 1.88.

For RHLAYSTVGTPDYIAPEVFMQTGY, the protein stability index was found to be 1.79. In the case of RTLAYSTVGTPDYIAPEVFMQTGY, the protein stability index came to 2.53.

For the variant RDLAYSTVGTPDYIAPEVFMQTGY, the protein stability index was determined as 2.69.

As for RALAYSTVGTPDYIAPEVFMQTGY, the protein stability index was found to be 2.45. For RPLAYSTVGTPDYIAPEVFMQTGY the value was 2.5; for RLLAYSTVGTPDYIAPEVFMQTGY, 1.7; for RGLAYSTVGTPDYIAPEVFMQTGY, 1.84. For RNLAYSTVGTPDYIAPEVFMQTGY the value was 2.16.

With RQLSYSTVGTPDYIAPEVFMQTGY, the protein stability index turned out to be 2.65.

On to RQLNYSTVGTPDYIAPEVFMQTGY, for which the protein stability index is 2.52. In the case of RQLCYSTVGTPDYIAPEVFMQTGY it was 2.14; in that of RQLRYSTVGTPDYIAPEVFMQTGY, 2.75; in that of RQLIYSTVGTPDYIAPEVFMQTGY, 1.77. In the case of RQLHYSTVGTPDYIAPEVFMQTGY it was 2.61; in that of RQLEYSTVGTPDYIAPEVFMQTGY, 2.8. In the case of RQLPYSTVGTPDYIAPEVFMQTGY it was 2.39; in that of RQLLYSTVGTPDYIAPEVFMQTGY, 2.69.

Turning to RQLDYSTVGTPDYIAPEVFMQTGY, the protein stability index turned out to be 2.38. For RQLVYSTVGTPDYIAPEVFMQTGY the value was 2.02. For RQLMYSTVGTPDYIAPEVFMQTGY the value was 2.6; for RQLFYSTVGTPDYIAPEVFMQTGY, 1.89.

Consider RQLTYSTVGTPDYIAPEVFMQTGY, for which the protein stability index came out at 2.55. In the case of RQLYYSTVGTPDYIAPEVFMQTGY it was 2.17; in that of RQLQYSTVGTPDYIAPEVFMQTGY, 3.1. Regarding RQLKYSTVGTPDYIAPEVFMQTGY, the protein stability index worked out at 3.29. For RQLWYSTVGTPDYIAPEVFMQTGY the value was 1.64.
